We go through one molecule from patent US20180057581A1 (MorphoSys, published 2018).

What all share (assay): MSD specificity profiling, coated protein, Camille at 10 nM
For one test, the target named is T1, RNase B (cow) (cow, UniProt P61823 27-150).
T1 sequence (looked up): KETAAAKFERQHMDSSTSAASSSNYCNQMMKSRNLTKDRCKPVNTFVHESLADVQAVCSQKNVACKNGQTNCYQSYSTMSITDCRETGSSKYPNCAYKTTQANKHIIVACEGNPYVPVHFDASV
How it is done:
(§1) For this specificity profiling test the different proteins and controls were coated on two 384-well MSD plates with a concentration of 1 μg/ml at 4° C. over night. Plates were blocked with BSA and washed three times with PBS with 0.05% (v/v) Tween 20. Antibody samples were diluted to 100 nM and 10 nM in assay buffer (PBS with 0.5% (w/v) BSA, 0.05% (v/v) Tween 20). […] Samples and controls were incubated for three hours at room temperature. The plates were washed three times and 30 μl detection antibody (ECL-labeled anti-human Fab) were added per well and incubated for 1 h. After washing, MSD Read Buffer T with surfactant was added and electrochemiluminescence signals were detected using a Sector Imager 6000 (Meso Scale Discovery, Gaithersburg, Md., USA).

The next test deals with Cytochrome c (cow) (cow, UniProt P62894 2-105). As for the experimental part:
as §1

In test [1] the target is Cell surface receptor 2 (human) (human). How it is done:
as §1

Another test addresses T2, Lectin (Lens culinaris) (Lens culinaris, UniProt P02870 31-210; P02870 218-269, limits assumed).
T2 sequence (looked up) 1: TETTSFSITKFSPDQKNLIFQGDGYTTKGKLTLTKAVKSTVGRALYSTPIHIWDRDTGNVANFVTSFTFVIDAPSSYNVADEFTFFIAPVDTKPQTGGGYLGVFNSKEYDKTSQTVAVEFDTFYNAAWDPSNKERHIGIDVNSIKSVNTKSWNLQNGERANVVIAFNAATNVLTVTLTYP
T2 sequence (looked up) 2: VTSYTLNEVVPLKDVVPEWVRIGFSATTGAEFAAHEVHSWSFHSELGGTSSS
How it is done: as §1

A further test deals with T3, Trypsinogen (cow) (cow, UniProt P00760 18-246).
T3 sequence (looked up): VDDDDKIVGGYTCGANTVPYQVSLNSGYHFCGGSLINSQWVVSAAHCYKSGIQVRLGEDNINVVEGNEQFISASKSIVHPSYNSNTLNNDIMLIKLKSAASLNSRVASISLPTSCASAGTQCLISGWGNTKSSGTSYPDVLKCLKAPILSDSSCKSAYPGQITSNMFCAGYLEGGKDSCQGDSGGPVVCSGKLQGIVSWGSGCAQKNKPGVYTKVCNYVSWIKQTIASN
How it is done:
as §1

For test [2], the target named is Anti-human Fc (Dianova, #109-005-098). As for the experimental part:
as §1

The target of another test is Myoglobin (horse) (horse, UniProt P68082 2-154). As for the experimental part: as §1
Sequence of Myoglobin (horse) (P68082 2-154 limits assumed): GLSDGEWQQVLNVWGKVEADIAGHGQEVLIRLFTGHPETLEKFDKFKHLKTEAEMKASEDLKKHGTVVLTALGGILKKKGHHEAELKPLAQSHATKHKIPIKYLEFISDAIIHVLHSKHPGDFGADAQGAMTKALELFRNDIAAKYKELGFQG
Test [3] deals with Cell surface receptor 1 (human) (human). How it is done: as §1
Test [4] deals with Cell surface receptor 3 (human) (human). How it is done:
as §1

The target of the next test is Lysozyme (chicken) (chicken, UniProt P00698 19-147). How it is done:
as §1

Test [5] concerns the target Trypsin inhibitor (Soybean) (Soybean). As for the experimental part:
as §1

A further test concerns the target Pepsinogen (pork) (pork, UniProt P00791 16-385). How it is done: as §1
For a further test, the target named is Transferrin (bovine) (bovine, UniProt Q29443 20-704). As for the experimental part:
as §1

Test [6] addresses Anti-human Fab (Dianova, # 109-005-097). How it is done:
as §1

The next test deals with Cytokine 1 (human) (human). As for the experimental part:
as §1

Test [7] deals with Aminogylcosidase (Aspergillus niger) (Aspergillus niger). How it is done:
as §1

Sequence of Pepsinogen (pork) (P00791 16-385): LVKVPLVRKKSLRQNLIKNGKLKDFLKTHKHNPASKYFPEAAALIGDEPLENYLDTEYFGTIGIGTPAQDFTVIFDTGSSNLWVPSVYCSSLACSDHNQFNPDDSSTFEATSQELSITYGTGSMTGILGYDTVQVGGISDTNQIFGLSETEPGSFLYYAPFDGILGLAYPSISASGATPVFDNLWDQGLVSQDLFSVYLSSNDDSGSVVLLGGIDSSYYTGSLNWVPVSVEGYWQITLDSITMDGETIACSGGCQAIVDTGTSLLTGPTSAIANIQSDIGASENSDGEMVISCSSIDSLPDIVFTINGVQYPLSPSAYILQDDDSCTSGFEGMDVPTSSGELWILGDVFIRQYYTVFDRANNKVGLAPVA
Sequence of Cytochrome c (cow) (P62894 2-105 limits assumed): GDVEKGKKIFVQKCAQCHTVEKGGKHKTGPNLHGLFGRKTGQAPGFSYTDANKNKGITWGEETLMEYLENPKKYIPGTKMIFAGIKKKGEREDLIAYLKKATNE
Sequence of Transferrin (bovine) (Q29443 20-704 limits assumed): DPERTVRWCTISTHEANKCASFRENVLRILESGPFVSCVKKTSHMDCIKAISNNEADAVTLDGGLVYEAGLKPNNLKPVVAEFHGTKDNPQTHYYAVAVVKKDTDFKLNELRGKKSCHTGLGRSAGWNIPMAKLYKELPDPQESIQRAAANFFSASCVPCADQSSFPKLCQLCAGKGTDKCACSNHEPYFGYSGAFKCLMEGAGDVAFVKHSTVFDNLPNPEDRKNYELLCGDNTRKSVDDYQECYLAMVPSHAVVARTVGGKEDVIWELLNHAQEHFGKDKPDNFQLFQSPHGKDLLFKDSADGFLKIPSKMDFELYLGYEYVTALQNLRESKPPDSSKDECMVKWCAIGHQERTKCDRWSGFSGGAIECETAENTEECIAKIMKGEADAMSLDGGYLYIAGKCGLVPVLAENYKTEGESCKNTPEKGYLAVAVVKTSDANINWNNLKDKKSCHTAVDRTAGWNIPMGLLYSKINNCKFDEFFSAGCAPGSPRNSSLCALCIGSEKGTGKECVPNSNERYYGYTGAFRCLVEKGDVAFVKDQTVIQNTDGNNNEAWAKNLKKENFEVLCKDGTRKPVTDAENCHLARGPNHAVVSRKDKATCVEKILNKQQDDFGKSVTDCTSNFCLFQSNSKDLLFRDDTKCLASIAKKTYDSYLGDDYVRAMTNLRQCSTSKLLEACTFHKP
Sequence of Aminogylcosidase (Aspergillus niger) (Aspergillus niger) (P69328 25-640): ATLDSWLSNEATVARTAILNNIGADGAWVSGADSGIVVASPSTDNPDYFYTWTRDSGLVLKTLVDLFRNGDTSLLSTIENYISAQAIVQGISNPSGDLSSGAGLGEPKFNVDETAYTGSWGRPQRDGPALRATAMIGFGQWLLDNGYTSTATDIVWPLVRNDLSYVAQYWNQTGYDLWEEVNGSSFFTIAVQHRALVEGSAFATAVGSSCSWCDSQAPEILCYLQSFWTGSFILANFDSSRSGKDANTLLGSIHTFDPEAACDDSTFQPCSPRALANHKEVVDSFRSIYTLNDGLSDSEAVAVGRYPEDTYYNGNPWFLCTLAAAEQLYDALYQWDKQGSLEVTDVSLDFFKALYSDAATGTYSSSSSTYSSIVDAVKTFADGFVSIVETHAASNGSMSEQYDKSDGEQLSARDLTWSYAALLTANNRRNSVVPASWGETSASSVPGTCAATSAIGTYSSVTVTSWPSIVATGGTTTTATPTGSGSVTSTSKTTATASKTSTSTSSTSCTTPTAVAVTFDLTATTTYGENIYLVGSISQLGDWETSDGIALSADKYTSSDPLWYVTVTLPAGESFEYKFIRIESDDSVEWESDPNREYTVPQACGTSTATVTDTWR
Sequence of Lysozyme (chicken) (P00698 19-147): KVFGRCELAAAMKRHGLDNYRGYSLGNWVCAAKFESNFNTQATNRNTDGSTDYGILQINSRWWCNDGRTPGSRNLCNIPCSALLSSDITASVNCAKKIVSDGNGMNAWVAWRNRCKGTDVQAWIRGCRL
Sequence of Trypsin inhibitor (Soybean) (Soybean) (P01070 25-205): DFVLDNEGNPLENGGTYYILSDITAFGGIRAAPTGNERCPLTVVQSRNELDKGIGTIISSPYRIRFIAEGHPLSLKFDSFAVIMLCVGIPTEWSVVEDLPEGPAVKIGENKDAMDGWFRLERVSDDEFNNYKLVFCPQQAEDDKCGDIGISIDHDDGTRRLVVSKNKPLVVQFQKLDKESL

B1: Camille (format not stated) (antibody, V domains shown)
VH: QVQLQQSGPGLVKPSQTLSLTCAISGESVSTSSAAWNWIRQSPSRGLEWLGRTYYRSKWKHEYAVSVKSRITINPDTSKNQFSLQLNSVTPEDTAVYYCARDRYYYSAFDYWGQGTLVTVSS
VL: QSALTQPASVSGSPGQSITISCTGTSSDVGGYNSVSWYQQHPGKAPKLLIYAVSNRPSGVSNRFSGSKSGNTASLTISGLQAEDEADYYCASYDERFTRVFGGGTKLTVLG
notes: also called Antibody Camille
Regarding B1, the “signal normalized to reference antibody MOR03207” value (shortened to “signal normalized”) (with RNase B (cow); in the test with Cytochrome c (cow); in [1]; with Lectin (Lens culinaris); with Trypsinogen (cow); in test [2]) was 1 ratio each time. For the same molecule, the “signal normalized” value with Myoglobin (horse) stood at 1 ratio; in [3], 1 ratio; in [4] it was 1 ratio; in the test with Lysozyme (chicken) it was 0 ratio; in [5], 1 ratio; with Pepsinogen (pork) it was 1 ratio. The “signal normalized” value (in the test with Transferrin (bovine); in test [6]; with Cytokine 1 (human); in test [7]) was 1 ratio throughout.
